Reference: IntAct's records for PubMed 12080061

B1: 182 kDa tankyrase-1-binding protein (Homo sapiens), Q9C0C2 (parent)
chain: MKVSTLRESSAMASPLPREMEEELVPTGSEPGDTRAKPPVKPKPRALPAKPALPAKPSLLVPVGPRPPRGPLAELPSARKMNMLAGPQPYGGSKRPLPFAPRPAVEASTGGEATQETGKEEAGKEEPPPLTPPARCAAPGGVRKAPAPFRPASERFAATTVEEILAKMEQPRKEVLASPDRLWGSRLTFNHDGSSRYGPRTYGTTTAPRDEDGSTLFRGWSQEGPVKSPAECREEHSKTPEERSLPSDLAFNGDLAKAASSELPADISKPWIPSSPAPSSENGGPASPGLPAEASGSGPGSPHLHPPDKSSPCHSQLLEAQTPEASQASPCPAVTPSAPSAALPDEGSRHTPSPGLPAEGAPEAPRPSSPPPEVLEPHSLDQPPATSPRPLIEVGELLDLTRTFPSGGEEEAKGDAHLRPTSLVQRRFSEGVLQSPSQDQEKLGGSLAALPQGQGSQLALDRPFGAESNWSLSQSFEWTFPTRPSGLGVWRLDSPPPSPITEASEAAEAAEAGNLAVSSREEGVSQQGQGAGSAPSGSGSSWVQGDDPSMSLTQKGDGESQPQFPAVPLEPLPTTEGTPGLPLQQAEERYESQEPLAGQESPLPLATREAALPILEPVLGQEQPAAPDQPCVLFADAPEPGQALPVEEEAVTLARAETTQARTEAQDLCRASPEPPGPESSSRWLDDLLASPPPSGGGARRGAGAELKDTQSPSTCSEGLLGWSQKDLQSEFGITGDPQPSSFSPSSWCQGASQDYGLGGASPRGDPGLGERDWTSKYGQGAGEGSTREWASRCGIGQEEMEASSSQDQSKVSAPGVLTAQDRVVGKPAQLGTQRSQEADVQDWEFRKRDSQGTYSSRDAELQDQEFGKRDSLGTYSSRDVSLGDWEFGKRDSLGAYASQDANEQGQDLGKRDHHGRYSSQDADEQDWEFQKRDVSLGTYGSRAAEPQEQEFGKSAWIRDYSSGGSSRTLDAQDRSFGTRPLSSGFSPEEAQQQDEEFEKKIPSVEDSLGEGSRDAGRPGERGSGGLFSPSTAHVPDGALGQRDQSSWQNSDASQEVGGHQERQQAGAQGPGSADLEDGEMGKRGWVGEFSLSVGPQREAAFSPGQQDWSRDFCIEASERSYQFGIIGNDRVSGAGFSPSSKMEGGHFVPPGKTTAGSVDWTDQLGLRNLEVSSCVGSGGSSEARESAVGQMGWSGGLSLRDMNLTGCLESGGSEEPGGIGVGEKDWTSDVNVKSKDLAEVGEGGGHSQARESGVGQTDWSGVEAGEFLKSRERGVGQADWTPDLGLRNMAPGAVCSPGESKELGVGQMDWGNNLGLRDLEVTCDPDSGGSQGLRGCGVGQMDWTQDLAPQNVELFGAPSEAREHGVGGVSQCPEPGLRHNGSLSPGLEARDPLEARELGVGETSGPETQGEDYSSSSLEPHPADPGMETGEALSFGASPGRCPARPPPSGSQGLLEEMLAASSSKAVARRESAASGLGGLLEEEGAGAGAAQEEVLEPGRDSPPSWRPQPDGEASQTEDVDGTWGSSAARWSDQGPAQTSRRPSQGPPARSPSQDFSFIEDTEILDSAMYRSRANLGRKRGHRAPVIRPGGTLGLSEAADSDAHLFQDSTEPRASRVPSSDEEVVEEPQSRRTRMSLGTKGLKVNLFPGLSPSALKAKLRPRNRSAEEGELAESKSSQKESAVQRSKSCKVPGLGKPLTLPPKPEKSSGSEGSSPNWLQALKLKKKKV

Variants of: B1
Conditions: with tnks1_human TNKS

effect of a mutation on the interaction	Variant
disrupting interaction strength	G1513A
